These results are taken from US20070072239A1 (Pfizer, published 2007).

The assay addresses T1, Wnt3 (human, UniProt P56703 22-355 at identity 1.00), limits assumed).
T1 chain: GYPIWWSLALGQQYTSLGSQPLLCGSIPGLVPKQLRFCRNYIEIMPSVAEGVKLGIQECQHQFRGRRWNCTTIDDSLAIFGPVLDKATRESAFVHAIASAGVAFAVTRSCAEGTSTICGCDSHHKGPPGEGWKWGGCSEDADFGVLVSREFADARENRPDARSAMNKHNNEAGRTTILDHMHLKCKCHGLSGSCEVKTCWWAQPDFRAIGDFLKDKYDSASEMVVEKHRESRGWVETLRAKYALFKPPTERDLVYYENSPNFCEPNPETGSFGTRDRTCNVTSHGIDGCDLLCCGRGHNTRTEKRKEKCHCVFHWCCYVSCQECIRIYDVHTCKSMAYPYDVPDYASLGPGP
The assay can be described thus: cell-based or functional assay.

B1: hOB SFRP-1 (human osteoblast secreted frizzled-related protein-1), wild-type full length (receptor)
chain: SEYDYVSFQSDIGPYQSGRFYTKPPQCVDIPADLRLCHNVGYKKMVLPNLLEHETMAEVKQQASSWVPLLNKNCHAGTQVFLCSLFAPVCLDRPIYPCRWLCEAVRDSCEPVMQFFGFYWPEMLKCDKFPEGDVCIAMTPPNATEASKPQGTTVCPPCDNELKSEAIIEHLCASEFALRMKIKEVKKENGDKKIVPKKKKPLKLGPIKKKDLKKLVLYLKNGADCPCHQLDNLSHHFLIMGRKVKSQYLLTAIHKWDKKNKEFKNFMKKMKNHECPTFQSVFK
Turning to B1, the inhibition of the Wnt-mediated upregulation of the 16xTCF-Luciferase reporter in U2OS cells was 90 % inhibition.

B2: SFRP-1 CRD mutant … to … (receptor)
chain: SEYDYVSFQSDIGPYQSGRFYTKPPQCVDIPADLRLCKSLPWNMTKMPNLLEHETMAEVKQQASSWVPLLNKNCHAGTQVFLCSLFAPVCLDRPIYPCRWLCEAVRDSCEPVMQFFGFYWPEMLKCDKFPEGDVCIAMTPPNATEASKPQGTTVCPPCDNELKSEAIIEHLCASEFALRMKIKEVKKENGDKKIVPKKKKPLKLGPIKKKDLKKLVLYLKNGADCPCHQLDNLSHHFLIMGRKVKSQYLLTAIHKWDKKNKEFKNFMKKMKNHECPTFQSVFK
Take B2: the loss of Wnt3 antagonist activity relative to SFRP-1 (TCF-Luciferase reporter) (% loss of activity) amounted to 45.

B3: SFRP-1 hyaluronan-binding domain mutant, distal lysine residues to alanine (receptor)
chain: SEYDYVSFQSDIGPYQSGRFYTKPPQCVDIPADLRLCHNVGYKKMVLPNLLEHETMAEVKQQASSWVPLLNKNCHAGTQVFLCSLFAPVCLDRPIYPCRWLCEAVRDSCEPVMQFFGFYWPEMLKCDKFPEGDVCIAMTPPNATEASKPQGTTVCPPCDNELKSEAIIEHLCASEFALRMKIKEVKKENGDKKIVPKKKKPLKLGPIAAADLAALVLYLKNGADCPCHQLDNLSHHFLIMGRKVKSQYLLTAIHKWDKKNKEFKNFMKKMKNHECPTFQSVFK
With B3, the loss of Wnt3 antagonist activity relative to SFRP-1 (TCF-Luciferase reporter) (% loss of activity) was 15.

B4: SFRP-1 tyrosine 73 to alanine mutant (receptor)
chain: SEYDYVSFQSDIGPYQSGRFYTKPPQCVDIPADLRLCHNVGAKKMVLPNLLEHETMAEVKQQASSWVPLLNKNCHAGTQVFLCSLFAPVCLDRPIYPCRWLCEAVRDSCEPVMQFFGFYWPEMLKCDKFPEGDVCIAMTPPNATEASKPQGTTVCPPCDNELKSEAIIEHLCASEFALRMKIKEVKKENGDKKIVPKKKKPLKLGPIKKKDLKKLVLYLKNGADCPCHQLDNLSHHFLIMGRKVKSQYLLTAIHKWDKKNKEFKNFMKKMKNHECPTFQSVFK
Molecule B4 registered a Wnt antagonist function compared to the wild type SFRP-1 (TCF-Luciferase reporter) (% of wild type SFRP-1) of 40.

B5: SFRP-1 mutant with a total of 10 lysine residues in the hyaluronan domain changed into alanine (receptor)
chain: SEYDYVSFQSDIGPYQSGRFYTKPPQCVDIPADLRLCHNVGYKKMVLPNLLEHETMAEVKQQASSWVPLLNKNCHAGTQVFLCSLFAPVCLDRPIYPCRWLCEAVRDSCEPVMQFFGFYWPEMLKCDKFPEGDVCIAMTPPNATEASKPQGTTVCPPCDNELKSEAIIEHLCASEFALRMKIKEVKKENGDKKIVPAAAAPLALGPIAAADLAALVLYLKNGADCPCHQLDNLSHHFLIMGRKVKSQYLLTAIHKWDKKNKEFKNFMKKMKNHECPTFQSVFK
The molecule B5 returned a loss of Wnt3 antagonist activity relative to SFRP-1 (TCF-Luciferase reporter) (% loss of activity) of 35.

B6: SFRP-1 CRD mutant KKMVL to NMTKM (receptor)
chain: SEYDYVSFQSDIGPYQSGRFYTKPPQCVDIPADLRLCHNVGYNMTKMPNLLEHETMAEVKQQASSWVPLLNKNCHAGTQVFLCSLFAPVCLDRPIYPCRWLCEAVRDSCEPVMQFFGFYWPEMLKCDKFPEGDVCIAMTPPNATEASKPQGTTVCPPCDNELKSEAIIEHLCASEFALRMKIKEVKKENGDKKIVPKKKKPLKLGPIKKKDLKKLVLYLKNGADCPCHQLDNLSHHFLIMGRKVKSQYLLTAIHKWDKKNKEFKNFMKKMKNHECPTFQSVFK
Regarding B6, the loss of Wnt3 antagonist activity relative to SFRP-1 (TCF-Luciferase reporter) (% loss of activity) was determined as 60.

B7: SFRP-1 tyrosine 73 to aspartate mutant (receptor)
chain: SEYDYVSFQSDIGPYQSGRFYTKPPQCVDIPADLRLCHNVGDKKMVLPNLLEHETMAEVKQQASSWVPLLNKNCHAGTQVFLCSLFAPVCLDRPIYPCRWLCEAVRDSCEPVMQFFGFYWPEMLKCDKFPEGDVCIAMTPPNATEASKPQGTTVCPPCDNELKSEAIIEHLCASEFALRMKIKEVKKENGDKKIVPKKKKPLKLGPIKKKDLKKLVLYLKNGADCPCHQLDNLSHHFLIMGRKVKSQYLLTAIHKWDKKNKEFKNFMKKMKNHECPTFQSVFK
Consider B7, for which the Wnt antagonist function compared to the wild type SFRP-1 (TCF-Luciferase reporter) (% of wild type SFRP-1) was 40.

B8: SFRP-1 tyrosine 73 to asparagine mutant (receptor)
chain: SEYDYVSFQSDIGPYQSGRFYTKPPQCVDIPADLRLCHNVGNKKMVLPNLLEHETMAEVKQQASSWVPLLNKNCHAGTQVFLCSLFAPVCLDRPIYPCRWLCEAVRDSCEPVMQFFGFYWPEMLKCDKFPEGDVCIAMTPPNATEASKPQGTTVCPPCDNELKSEAIIEHLCASEFALRMKIKEVKKENGDKKIVPKKKKPLKLGPIKKKDLKKLVLYLKNGADCPCHQLDNLSHHFLIMGRKVKSQYLLTAIHKWDKKNKEFKNFMKKMKNHECPTFQSVFK
Regarding B8, the Wnt antagonist function compared to the wild type SFRP-1 (TCF-Luciferase reporter) (% of wild type SFRP-1) amounted to 40.

B9: SFRP-1 CRD mutant LLEHE (amino acids 81-85) to HLHHS (receptor)
chain: SEYDYVSFQSDIGPYQSGRFYTKPPQCVDIPADLRLCHNVGYKKMVLPNHLHHSTMAEVKQQASSWVPLLNKNCHAGTQVFLCSLFAPVCLDRPIYPCRWLCEAVRDSCEPVMQFFGFYWPEMLKCDKFPEGDVCIAMTPPNATEASKPQGTTVCPPCDNELKSEAIIEHLCASEFALRMKIKEVKKENGDKKIVPKKKKPLKLGPIKKKDLKKLVLYLKNGADCPCHQLDNLSHHFLIMGRKVKSQYLLTAIHKWDKKNKEFKNFMKKMKNHECPTFQSVFK
As to B9, the loss of Wnt3 antagonist activity relative to SFRP-1 (TCF-Luciferase reporter) (% loss of activity) was 30.

B10: SFRP-1 tyrosine 73 to serine mutant (receptor)
chain: SEYDYVSFQSDIGPYQSGRFYTKPPQCVDIPADLRLCHNVGSKKMVLPNLLEHETMAEVKQQASSWVPLLNKNCHAGTQVFLCSLFAPVCLDRPIYPCRWLCEAVRDSCEPVMQFFGFYWPEMLKCDKFPEGDVCIAMTPPNATEASKPQGTTVCPPCDNELKSEAIIEHLCASEFALRMKIKEVKKENGDKKIVPKKKKPLKLGPIKKKDLKKLVLYLKNGADCPCHQLDNLSHHFLIMGRKVKSQYLLTAIHKWDKKNKEFKNFMKKMKNHECPTFQSVFK
Molecule B10 had a Wnt antagonist function compared to the wild type SFRP-1 (TCF-Luciferase reporter) (% of wild type SFRP-1) of 40.

B11: SFRP-1 tyrosine 73 to phenylalanine mutant (receptor)
chain: SEYDYVSFQSDIGPYQSGRFYTKPPQCVDIPADLRLCHNVGFKKMVLPNLLEHETMAEVKQQASSWVPLLNKNCHAGTQVFLCSLFAPVCLDRPIYPCRWLCEAVRDSCEPVMQFFGFYWPEMLKCDKFPEGDVCIAMTPPNATEASKPQGTTVCPPCDNELKSEAIIEHLCASEFALRMKIKEVKKENGDKKIVPKKKKPLKLGPIKKKDLKKLVLYLKNGADCPCHQLDNLSHHFLIMGRKVKSQYLLTAIHKWDKKNKEFKNFMKKMKNHECPTFQSVFK
For the molecule B11, the loss of Wnt antagonist function relative to SFRP-1 (TCF-Luciferase reporter) (% loss of function) stood at 20.

B12: 3' His tagged SFRP-1 (receptor)
chain: SEYDYVSFQSDIGPYQSGRFYTKPPQCVDIPADLRLCHNVGYKKMVLPNLLEHETMAEVKQQASSWVPLLNKNCHAGTQVFLCSLFAPVCLDRPIYPCRWLCEAVRDSCEPVMQFFGFYWPEMLKCDKFPEGDVCIAMTPPNATEASKPQGTTVCPPCDNELKSEAIIEHLCASEFALRMKIKEVKKENGDKKIVPKKKKPLKLGPIKKKDLKKLVLYLKNGADCPCHQLDNLSHHFLIMGRKVKSQYLLTAIHKWDKKNKEFKNFMKKMKNHECPTFQSVFKHHHHHH
In turn, B12 returned a loss of Wnt inhibitory function relative to SFRP-1 (TCF-Luciferase reporter) (% loss of function) of 30.

B13: human SFRP-3 (receptor)
chain: AACEPVRIPLCKSLPWNMTKMPNHLHHSTQDNAILAIEQFEGLLGTHCSPDLLFFLCAMYAPICTIDFQHEPIKPCKSVCERARQGCEPILIKYRHSWPENLACEELPVYDRGVCISPEAIVTADGADFPMDSSNGNCRGASSERCKCKPIRATQKTYFRNNYNYVIRAKVKEIKTKCHDVTAVVEVKEILKSSLVNIPRDTVNLYTSSGCLCPPLNVNEEYIIMGYEDEERSRLLLVEGSIAEKWKDRLGKKVKRWDMKLRHLGLSKSDSSNSDSTQSQKSGRNSNPRQARN
As to B13, the Wnt3 antagonist function relative to SFRP-1 (TCF-Luciferase reporter) (% less active) came out at 60.

B14: human SFRP-2 (receptor)
chain: LFLFGQPDFSYKRSNCKPIPANLQLCHGIEYQNMRLPNLLGHETMKEVLEQAGAWIPLVMKQCHPDTKKFLCSLFAPVCLDDLDETIQPCHSLCVQVKDRCAPVMSAFGFPWPDMLECDRFPQDNDLCIPLASSDHLLPATEEAPKVCEACKNKNDDDNDIMETLCKNDFALKIKVKEITYINRDTKIILETKSKTIYKLNGVSERDLKKSVLWLKDSLQCTCEEMNDINAPYLVMGQKQGGELVITSVKRWQKGQREFKRISRSIRKLQC
Molecule B14 returned an inhibition of Wnt3-mediated upregulation of the 16xTCF-Luciferase activity, relative to SFRP-1 (% less active) of 25.

B15: truncated SFRP-1 (Δ167-314) containing the CRD alone (receptor)
chain: SEYDYVSFQSDIGPYQSGRFYTKPPQCVDIPADLRLCHNVGYKKMVLPNLLEHETMAEVKQQASSWVPLLNKNCHAGTQVFLCSLFAPVCLDRPIYPCRWLCEAVRDSCEPVMQFFGFYWPEMLKCDKFPEGDVC
For B15, the “Wnt antagonist activity relative to full length SFRP-1 (TCF-Luciferase reporter, U2OS cells)” value is ~80 % of full length SFRP-1 activity.

B16: SFRP-1/SFRP-2(1-295/285-295) chimera (receptor)
chain: SEYDYVSFQSDIGPYQSGRFYTKPPQCVDIPADLRLCHNVGYKKMVLPNLLEHETMAEVKQQASSWVPLLNKNCHAGTQVFLCSLFAPVCLDRPIYPCRWLCEAVRDSCEPVMQFFGFYWPEMLKCDKFPEGDVCIAMTPPNATEASKPQGTTVCPPCDNELKSEAIIEHLCASEFALRMKIKEVKKENGDKKIVPKKKKPLKLGPIKKKDLKKLVLYLKNGADCPCHQLDNLSHHFLIMGRKVKSQYLLTAIHKWDKKNKEFKRISRSIRKLQC
In the case of B16, the “Wnt3 inhibitory activity relative to SFRP-1 (TCF-Luciferase reporter)” value is ~20 % of SFRP-1 activity and the “loss of Wnt3 antagonist activity relative to SFRP-1 (TCF-Luciferase reporter)” value was ~70 % loss of activity.
